Reference: patent US7786348B2, “Methods for producing pathogen-resistant plants with allene oxide synthase and divinyl ether synthase, and the amino acid and nucleotide sequences thereof” (BASF Plant Science GmbH, priority 2001, dated 2010)

Experiments:
[1] = test system: Blumeria graminis f.sp. hordei; experiment: Transient transformation of barley leaf segments, powdery mildew penetration; type: cell-based, barley cv. Pallas; details: for haustorial growth of the fungus in transformed cells: Calcofluor staining, fluorescence microscopy; for effect on total number or number of attacked GFP-expressing cells: compared with control cDNA experiments; for average % RPE value (relative penetration efficiency): deviation from average penetration efficiency of the control; for reduction of penetration efficiency by Blumeria graminis f.sp. hordei: on average, six experiments, versus control cDNA (TR), 48 hours after inoculation
Procedure: Barley cv. Pallas leaf segments were transformed with a cDNA of Pp291 or Pp364 which were present in the GFP expression vector (green fluorescence protein). The leaves were subsequently inoculated with the pathogenic fungus Blumeria graminis f.sp. hordei (powdery mildew of barley), and the result was analyzed after 48 hours by means of light microscopy and fluorescence microscopy. The penetration into GFP-expressing cells was assessed by detecting haustoria in live cells and by assessing the fungal development in precisely those cells. […].
The transient transformation of barley was carried out with a method which had already been described for the biloistic introduction of cDNA into epidermal cells of barley leaves (Schweizer P et al. (1999) Mol Plant Microbe Interact 12:647-54; Schweizer P et al. (2000) Plant J 2000 24:895-903). Tungsten particles with a diameter of […] (particle density 25 mg/ml) were coated with cDNA together with plasmid DNA of the vector pGFP (GFP under the control of the CaMV 35S promoter) as transformation marker. To this end, the following amount of cDNA and reporter plasmid were used for coating purposes for each bombardment: 1 mg of pGFP and 2 mg of cDNA. To prepare the microcarriers, 55 mg of tungsten particles (M 17, diameter […]; Bio-Rad, Munich) were washed twice with 1 ml of autoclave distilled water and once with 1 ml of absolute ethanol, dried and taken up in 1 ml of 50% strength glycerol (approximately 50 mg/ml stock solution). The solution was diluted with 50% strength glycerol to 25 mg/ml, mixed thoroughly before use and suspended in an ultrasonic bath. To coat the microcarriers, 1 mg of plasmid, 2 mg of cDNA (1 mL), […] of tungsten particle suspension (25 mg/ml), […] of 1 M Ca(NO3)2 solution (pH 10) per bombardment were combined dropwise with constant mixing, left to stand for 10 minutes at RT and centrifuged briefly, and […] of supernatant were removed. The remainder, which contained the tungsten particles, is resuspended (ultrasonic bath) and employed in the experiment.
Barley primary leaf segments approximately 4 cm in length were used. The tissue was placed on 0.5% Phytagar (GibcoBRLt Life Technologiest, Karlsruhe) supplemented with […] benzimidazole in Petri dishes (diameter 6.5 cm); immediately prior to the particle bombardment, the edges were covered with a stencil with a rectangular slot 2.2 cm×2.3 cm in size. One after the other, the dishes were placed on the bottom of the vacuum chamber (Schweizer P et al. (1999) Mol Plant Microbe Interact 12:647-54) above which a nylon mesh (mesh size 0.2 mm, Millipore, Eschborn) had been inserted on a perforated board (5 cm above the bottom, 11 cm underneath the macrocarrier, see hereinbelow) to act as diffuser in order to diffuse particle aggregations and to slow down the particle stream. For each bombardment, the macrocarrier (plastic sterile filter holder 13 mm, Gelman Sciences, Swinney, UK) which had been attached at the top of the chamber was loaded with […] of DNA-coated tungsten particles (microcarrier, see hereinbelow). The pressure in the chamber was reduced by 0.9 bar using a membrane vacuum pump (Vacuubrand, Wertheim), and the surface of the plant tissue was bombarded with the tungsten particles at a helium gas pressure of 9 bar. The chamber was aerated immediately thereafter.
To label transformed cells, the leaves were bombarded with the plasmid (pGFP; pUC18-based vector, CaMV 35S promoter/terminator cassette with inserted GFP gene; Schweizer P et al. (1999) Mol Plant Microbe Interact 12:647-54; provided by Dr P. Schweizer, Schweizer P, Institute of Plant Genetics IPK, Gatersleben, Germany). Before carrying out the bombardment with another plasmid, the macrocarrier was cleaned thoroughly with water in each case. […]

[2] = test system: pathogenic fungus or bacterium (Blumeria graminis, Pythium spec., Botrytis cinerea, Pseudomonas syringae and others); experiment: Pathogen infection of transgenic Arabidopsis thaliana; type: in vivo; details: transgenic plants, sense orientation; fluorescence and light microscopy
[3] = HPLC analysis of DNPH-derivatized volatile aldehydes; type: biochemical; details: substrates 13-HPOTE and 9-HPODE, DNPH derivatives
Excerpt: The reaction of hydroperoxides with DES gives rise to divinyl ethers which hydrolyze in an acidic environment to give aldehydes. These aldehydes are volatile. In order to identify these aldehydes which are formed, they can be derivatized with DNPH (Kohlmann et al.; 1999, Eur. J. Biochem. 260, 885-895). The hydrazones thus formed are no longer volatile and can be identified with the aid of an HPLC analysis via their retention time.

Molecule	haustorial growth of the fungus in transformed cells [1]	effect on total number or number of attacked GFP-expressing cells [1]	average % RPE value (relative penetration efficiency) [1] [%]	reduction of penetration efficiency by Blumeria graminis f.sp. hordei [1] [%]	resistance to pathogens in comparison with the wild type [2]	formation of aldehydes in reaction mixture [3]
Pp364 cDNA: complete cDNA encoding the Physcomitrella patens divinyl ether synthase, used to transform barley and Arabidopsis	no haustorial growth takes place	no effect	−30	44	increased resistance	–
Pp291 cDNA: complete cDNA encoding the Physcomitrella patens allene oxide synthase, used to transform barley and Arabidopsis (nucleic acid, listed as Physcomitrella patens, CDS (1)..(1428) Pp291 Allenoxid-Synthase, complete cDNA encoding the Physcomitrella patens allene oxide synthase, used to transform barley and Arabidopsis) DNA: ATGGCAGTCCCTTCATCCAAGCTGCCGTTGAAGGCGATTCCTGGAGACTATGGAGTCCCCTACTTCGGTGCCATAAAGGATCGACTAGACTACTTTTGGTTGCAGGGGGAGGAGCAGTTTTACCGAAGCCGGATGGCCAAGTACAATAGCACGGTGTTTCGTGTCAACATGCCGCCTGGCCCTCCAATTTCCGAACACCCTCAAGTCATCTGCCTCTTGGATCAGAAAAGCTTTCCAATTCTGTTCGACGTTAGCAAGGTTGAGAAAAAGGACGTGTTCACAGGAACATACATGCCGAGTGTGAGCTTCACCAGCGGGTACCGCGTTTGCTCCTACTTGGATCCCTCTGAGGAACGCCACACGAAGCTCAAGCAATGGTGCTTTGAAGTCATTGCGATGAACGGGCGGAACTTTCTTCCCGAGTTTCACAAGTCGATTGAAGAGTCGATGGTGCTCTGGGAGACGAGTCTGGCCAAGGGCGAGAAGACTAGCGTATCGGATGAGGTGAAACAGTTCGCGTTTAATTTCCTGATGCGCGCTGTATGCCATCACGACCCCGCTGCGCCTGGAGAATACAGCTTAGGGCGTAATGGTGGCCCGTATGCAACCGCCTGGGCAAATCCCCAGCTCGCTCCGATTGCAGGACAGACGGGTCTCCCCCATGTCGTGGAGGAGCTCGTGTTACACACCGTCCCACTCCCCTCTGCCCTGGTCAAGAAGAACTACGATGCCCTCTACAATTTCATCAAAAACTACGCCACCGAGGCGCTGGATAGGGCTGAAGCTATGGGCATCGAGCGCAATGACGCCACTGCCAACCTGCTGTTCTTCCTTTGCTTTAACGCCTACGGCGGATTCAGCATCTTCTTCCCCCTCATCACTATCCTCATTTCTTCATGCGGTCCGGAGCTCATGCACGATCTCCACGACGAAGTCACCAAGGCCGTCGCCGCCACAGATGGGAAAGTCACTCTTCAATCCATCGAGAACATGCCATTGGTGAAGTCCGTCGTCTACGAAGCTTTCCGATTCAAGCCCCCAGTGCCATACCAATACGGCAAGGCCAAGTTCGACTTCACCATAGAGAACCACGAAAACTCCTTCGAGGTCAAGAAGGGAGAAATGCTGTATGGTTATCAACCTATCGTGATGCACGACCCCAAGGTCTTCTCGGACCCAGATCAGTTTCTACCTCGACGATTCATGGGCCCCGACGGCGAGAAGCTCATCAAATACATCTTCTGGTCCAATGGTTACGAGACTGACGAGCCGACTACCGCAAACAAGCAGTGCGCCGGAAAGGACTTGGTGGTCACAATGGCGCGAGCATTCGTCGCAGAAATGTTCTTGAGATATAAAGAGTATACCCTGACCATGGAGGGCGCAGGAAATGCGACCAAGGTTTTCTTTTCCGATCTCAAAAAGTGA	no haustorial growth takes place	no effect	−30	44	increased resistance	–
Pp364: Physcomitrella patens CYP74E divinyl ether synthase, 532 amino acids, recombinantly expressed in E. coli (protein, listed as Physcomitrella patens) MDRTLVLTCTTTCSHSAFRQSALPSNTSISVRLGTCSVRTQKRRTVVASLGNIETTSTSTVGQESNLPLREIPGSYGIPYLSQLLDRWTFFYREGEPQFWQSRMAKYGSTVIRSNMPPGWFWTDSRCIMLLDQKSYPTVFDYDKVDKYKAFAGTIMPSTEYNGGYEVCAYLDASDKKHEQLKGYCFELLKFSSSKWAREFHTAISETFNQWEGKLAQKTPALINPTLPESLFSFVINALTTARFDDSSIPDAEKPVCGDLQKWAGFQLMPVIRTGAPIYIEEMLHVAPIPASLTKGGYDKMVVFLQKYAAETLSIAEKFGLSQDEAVHNLIFFLILNAHGGFCRFLPVILREVAKNGQLQADLREEVRAAVKASGSDQVTMKAVMNDMPLVASTVFEALRFDPPVPFQYARAKKDFIIESHDARYQIKTGDFLGGVNYMVSRDPKVFTDRPNEFNARRFMGPEGDKLLAHLVWSNGRQTDETTVYTKQCAGKEIVPLTGRLLLAELFMRFDSFNIEGLEMEATFTSLTPRSD	–	–	–	–	–	aldehydes are formed
Pp291: Physcomitrella patens CYP74A allene oxide synthase, 475 amino acids, recombinantly expressed in E. coli (protein, listed as Physcomitrella patens) MAVPSSKLPLKAIPGDYGVPYFGAIKDRLDYFWLQGEEQFYRSRMAKYNSTVFRVNMPPGPPISEHPQVICLLDQKSFPILFDVSKVEKKDVFTGTYMPSVSFTSGYRVCSYLDPSEERHTKLKQWCFEVIAMNGRNFLPEFHKSIEESMVLWETSLAKGEKTSVSDEVKQFAFNFLMRAVCHHDPAAPGEYSLGRNGGPYATAWANPQLAPIAGQTGLPHVVEELVLHTVPLPSALVKKNYDALYNFIKNYATEALDRAEAMGIERNDATANLLFFLCFNAYGGFSIFFPLITILISSCGPELMHDLHDEVTKAVAATDGKVTLQSIENMPLVKSVVYEAFRFKPPVPYQYGKAKFDFTIENHENSFEVKKGEMLYGYQPIVMHDPKVFSDPDQFLPRRFMGPDGEKLIKYIFWSNGYETDEPTTANKQCAGKDLVVTMARAFVAEMFLRYKEYTLTMEGAGNATKVFFSDLKK	–	–	–	–	–	No aldehydes were detected
